Data: patent US20200079862A1 (AGENUS, published 2020)

Experiments:
[1] = target: T1, recombinant human OX40-His (SinoBiological, 10481-H08H) (human, UniProt P43489 29-216); assay: Luminex suspension array, protein coupled to microspheres, PE MFI; antibody at 10, 100 and 1000 ng/ml
T1 construct: not shown: His tag
T1 sequence: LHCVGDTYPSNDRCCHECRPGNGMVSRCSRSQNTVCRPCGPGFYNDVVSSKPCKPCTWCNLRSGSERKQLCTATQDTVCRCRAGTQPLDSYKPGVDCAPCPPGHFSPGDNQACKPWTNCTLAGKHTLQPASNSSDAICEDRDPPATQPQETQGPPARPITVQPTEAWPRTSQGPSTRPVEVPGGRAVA
Experimental: (§1) A number of TNFR family members were chemically coupled to Luminex® microspheres using standard NETS-ester chemistry. […] Briefly, 25 μl of each dilution was incubated in the dark (20° C., 650 rpm) with 1500 Luminex® microspheres in 5 μl assay buffer for 1 hour in 96 half-well filter plates (Millipore, MABVN1250). Luminex® microspheres were coupled with recombinant human OX40-His (SinoBiological, 10481-H08H), recombinant human OX40-Fc (R&D systems, 3388-OX), recombinant human LTBR-Fc (Acros Biosystems, LTR-H5251), recombinant human GITR-His (SinoBiological, 13643-H08H), recombinant human GITR-Fc (R&D, 689-GR), recombinant human DR6-Fc (SinoBiological, 10175-H02H), recombinant human DR3-Fc (R&D, 943-D3), recombinant human TWEAK R-Fc (SinoBiological, 10431-H01H), recombinant human CD137-His (SinoBiological, 10041-H08H), recombinant human BAFFR-Fc (R&D, 1162-BR) or anti-human IgG (F(ab)₂-specific, JIR, 105-006-097) via amine coupling with COOH bead surface. Standard curves were generated using duplicates of 25 μl of a human IgG1 standard (Sigma, I5154) with 1:3 dilution series (0.08-540 ng/ml). […] Plates were analyzed using a Luminex® 200 system (Millipore). A total of 100 beads were counted per well in a 48 μl sample volume. […]

[2] = target: T2, recombinant human OX40-Fc (R&D systems, 3388-OX) (human, UniProt P43489 29-216); assay: as above
T2 construct: not shown: Fc part
T2 sequence: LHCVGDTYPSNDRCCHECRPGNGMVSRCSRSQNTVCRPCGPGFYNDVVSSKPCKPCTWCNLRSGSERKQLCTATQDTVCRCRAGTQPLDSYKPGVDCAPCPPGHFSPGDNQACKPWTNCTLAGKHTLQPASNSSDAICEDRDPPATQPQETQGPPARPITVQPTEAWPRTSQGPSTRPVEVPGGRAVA
Experimental: as §1

[3] = target: T3, recombinant human DR3-Fc (R&D, 943-D3) (human, UniProt Q93038 25-201, limits assumed); assay: Luminex suspension array, protein coupled to microspheres, PE MFI
T3 construct: Bought construct; not shown: Fc part
T3 sequence (looked up): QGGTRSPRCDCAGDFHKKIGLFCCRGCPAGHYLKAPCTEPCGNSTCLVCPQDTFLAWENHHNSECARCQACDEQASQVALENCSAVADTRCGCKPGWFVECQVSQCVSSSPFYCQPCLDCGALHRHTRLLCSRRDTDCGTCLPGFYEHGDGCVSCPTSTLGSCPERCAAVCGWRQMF
Experimental: (§2) A number of TNFR family members were chemically coupled to Luminex® microspheres using standard NETS-ester chemistry. […] Briefly, 25 μl of each dilution was incubated in the dark (20° C., 650 rpm) with 1500 Luminex® microspheres in 5 μl assay buffer for 1 hour in 96 half-well filter plates (Millipore, MABVN1250). Luminex® microspheres were coupled with recombinant human OX40-His (SinoBiological, 10481-H08H), recombinant human OX40-Fc (R&D systems, 3388-OX), recombinant human LTBR-Fc (Acros Biosystems, LTR-H5251), recombinant human GITR-His (SinoBiological, 13643-H08H), recombinant human GITR-Fc (R&D, 689-GR), recombinant human DR6-Fc (SinoBiological, 10175-H02H), recombinant human DR3-Fc (R&D, 943-D3), recombinant human TWEAK R-Fc (SinoBiological, 10431-H01H), recombinant human CD137-His (SinoBiological, 10041-H08H), recombinant human BAFFR-Fc (R&D, 1162-BR) or anti-human IgG (F(ab)₂-specific, JIR, 105-006-097) via amine coupling with COOH bead surface. Standard curves were generated using duplicates of 25 μl of a human IgG1 standard (Sigma, I5154) with 1:3 dilution series (0.08-540 ng/ml). Detection was carried out using 60 μl of goat anti-human IgG F(ab)₂ labeled with R-PE (2.5 μg/ml; JIR 109-116-098, AbDSerotec Rapid RPE Antibody Conjugation Kit, LNK022RPE) and another hour of incubation time (20° C., 650 rpm). Plates were analyzed using a Luminex® 200 system (Millipore). A total of 100 beads were counted per well in a 48 μl sample volume. PE MFI values were used to determine specific or non-specific binding to the recombinant proteins mentioned above.

[4] = target: T4, recombinant human GITR-Fc (R&D, 689-GR) (human, UniProt Q9Y5U5 26-161); assay: as above
T4 construct: Bought construct; not shown: Fc part
T4 sequence (looked up): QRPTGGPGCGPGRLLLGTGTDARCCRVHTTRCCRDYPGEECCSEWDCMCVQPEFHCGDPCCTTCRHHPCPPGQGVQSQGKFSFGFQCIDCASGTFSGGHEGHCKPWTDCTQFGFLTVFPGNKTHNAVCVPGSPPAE
Experimental: as §2

[5] = target: T5, recombinant human LTBR-Fc (Acros Biosystems, LTR-H5251) (human, UniProt P36941 28-227, limits assumed); assay: as above
T5 construct: Bought construct; not shown: Fc part
Experimental: as §2

[6] = target: T6, recombinant human TWEAK R-Fc (SinoBiological, 10431-H01H) (human, UniProt Q9NP84 28-80); assay: as above
T6 construct: Bought construct; not shown: Fc part
Experimental: as §2

[7] = target: T7, recombinant human BAFFR-Fc (R&D, 1162-BR) (human, UniProt Q96RJ3 7-71, limits assumed); assay: as above
T7 construct: Bought construct; not shown: Fc part
Experimental: as §2

[8] = target: T8, recombinant human DR6-Fc (SinoBiological, 10175-H02H) (human, UniProt O75509 42-349); assay: as above
T8 construct: Bought construct; not shown: Fc part
T8 sequence (looked up): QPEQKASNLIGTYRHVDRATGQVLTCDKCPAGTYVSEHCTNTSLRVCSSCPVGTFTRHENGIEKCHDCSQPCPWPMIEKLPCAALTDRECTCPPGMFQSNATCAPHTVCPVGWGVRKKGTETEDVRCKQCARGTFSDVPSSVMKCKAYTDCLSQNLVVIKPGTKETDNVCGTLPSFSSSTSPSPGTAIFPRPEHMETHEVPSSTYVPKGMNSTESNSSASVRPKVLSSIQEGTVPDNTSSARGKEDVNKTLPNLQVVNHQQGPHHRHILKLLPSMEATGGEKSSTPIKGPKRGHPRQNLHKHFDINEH
Experimental: as §2

[9] = target: T9, recombinant human GITR-His (SinoBiological, 13643-H08H) (human, UniProt Q9Y5U5 26-161); assay: as above
T9 construct: Bought construct; not shown: His tag
T9 sequence (looked up): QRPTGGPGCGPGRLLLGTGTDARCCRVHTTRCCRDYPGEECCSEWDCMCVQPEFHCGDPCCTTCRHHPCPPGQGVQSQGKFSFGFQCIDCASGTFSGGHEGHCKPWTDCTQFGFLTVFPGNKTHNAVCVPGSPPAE
Experimental: as §2

[10] = target: T10, recombinant human CD137-His (SinoBiological, 10041-H08H) (human, UniProt Q07011 24-186); assay: as above
T10 construct: Bought construct; not shown: His tag
Experimental: as §2

[11] = target: T11, human OX40 expressed on cells (human, UniProt P43489 29-277); assay: flow cytometry, 10-point titration 0.5-10,000 ng/ml, APC anti-human kappa detection
T11 construct: It was expressed ectopically on Jurkat cells or induced on Hut102 cells and primary T cells; also called huOX40; Jurkat-huOX40
T11 sequence: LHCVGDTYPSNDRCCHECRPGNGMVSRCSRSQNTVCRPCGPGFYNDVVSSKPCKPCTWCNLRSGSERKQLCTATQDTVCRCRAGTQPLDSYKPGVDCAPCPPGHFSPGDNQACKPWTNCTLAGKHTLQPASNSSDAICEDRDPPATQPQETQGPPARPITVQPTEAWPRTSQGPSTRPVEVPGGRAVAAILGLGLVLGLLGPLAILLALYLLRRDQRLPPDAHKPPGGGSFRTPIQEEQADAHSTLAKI
Experimental: Stable clones were generated via single-cell sorting (FACS ARIA Fusion). […] Samples were then washed two times and analyzed using the LSRFortessa flow cytometer (BD Biosciences). FACS plots were analyzed using a combination of FACS DIVA and WEHI Weasel software. Data were plotted with Graphpad Prism software.

T7 sequence (Q96RJ3 7-71 limits assumed): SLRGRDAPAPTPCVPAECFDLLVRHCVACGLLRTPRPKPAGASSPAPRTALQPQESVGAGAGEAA
T5 sequence (P36941 28-227 limits assumed): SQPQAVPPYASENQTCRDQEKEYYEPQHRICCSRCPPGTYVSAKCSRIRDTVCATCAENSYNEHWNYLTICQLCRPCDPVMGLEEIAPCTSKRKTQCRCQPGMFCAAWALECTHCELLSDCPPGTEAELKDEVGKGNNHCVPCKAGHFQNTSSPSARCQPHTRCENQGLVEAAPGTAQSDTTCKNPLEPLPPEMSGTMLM
T10 sequence (Q07011 24-186 limits assumed): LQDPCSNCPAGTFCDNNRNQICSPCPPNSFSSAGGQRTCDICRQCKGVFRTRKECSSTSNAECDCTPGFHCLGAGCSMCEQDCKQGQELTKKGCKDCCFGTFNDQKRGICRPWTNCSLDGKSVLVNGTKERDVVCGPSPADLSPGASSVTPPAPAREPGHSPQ

- binding result [1]: binds
- binding result [2]: binds
- binding result [11]: binds
B1: pab2049 (IgG1) (antibody, V domains shown)
VH: EVQLVESGGGLVQPGGSLKLSCAASGFTFSGSAMHWVRQASGKGLEWVGRIRSKANSYATAYAASVKGRFTISRDDSKNTAYLQMNSLKTEDTAVYYCTSGIYDSSGYDYWGQGTLVTVSS
VL: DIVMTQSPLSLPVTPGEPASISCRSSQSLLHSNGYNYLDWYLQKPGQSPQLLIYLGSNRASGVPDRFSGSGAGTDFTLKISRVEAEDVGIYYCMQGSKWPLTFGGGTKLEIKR
notes: Human IgG1; also called anti-OX40 antibody pab2049 (IgG1)
- binding result [3]: no binding (tested: 10 ng/ml, 100 ng/ml and 1000 ng/ml)
- binding result [4]: no binding (tested: 10 ng/ml, 100 ng/ml and 1000 ng/ml)
- binding result [5]: no binding (tested: 10 ng/ml, 100 ng/ml and 1000 ng/ml)
- binding result [6]: no binding (tested: 10 ng/ml, 100 ng/ml and 1000 ng/ml)
- binding result [7]: no binding (tested: 10 ng/ml, 100 ng/ml and 1000 ng/ml)
- binding result [8]: no binding (tested: 10 ng/ml, 100 ng/ml and 1000 ng/ml)
- binding result [9]: no binding (tested: 10 ng/ml, 100 ng/ml and 1000 ng/ml)
- binding result [10]: no binding (tested: 10 ng/ml, 100 ng/ml and 1000 ng/ml)
